B1: ADI-41247 (antibody, V domains shown)
VH: QVQLVQSGAEVKKPGASLQVSCKASGYTFTDSYFHWVRQAPGQGLEWMGRISPHSGGTNYAQKFQGRVTMTRDTSISTAYLELSRLRSDDTAVYYCATEGPRGPFRFDPWGQGTLVTVSS
VL: NFMLTQPHSVSESPGKTVTISCTRSSGSIASNYVQWYQQRPGSSPTTVIYEDNQRPSGVPDRFSGSIDSSSNSASLTISGLMTEDEADYYCQSYDSSNWVFGGGTKLTVL
B2: ADI-41240 (antibody, V domains shown)
VH: QVQLQQWGAGLLKPSETLSLICDVYGGSFSDYYWSWIRQSPGKGLEWIGEINHSGSTSFHPSLKSRISISIDTSNNQFSLNLSSMTAADTAVYYCARGTLRGYFDYWGQGTLVTVSS
VL: EIVLTQSPSTLSAFVGDRVTITCRASQSISRWLAWYQQKPGKAPNLLISEASSLESGVPSRFSGSGSGTEFTLTISSLQPDDLGTYYCQQYNGYLWTFGQGTKVEIK
B3: ADI-41239 (antibody, V domains shown)
VH: QITLKESGPTLVKPTQTLTLTCTFSGFSLTTTGVGVGWIRQPPGKALEWLALIYWDDDKRYSPSLKNRITITKDTSKKQVVLTMTNMDPADTATYYCAHISTVVTYDSSGSYYVLINWFDPWGQGTLVTVSS
VL: not shown
B4: ADI-41249 (antibody, V domains shown)
VH: QVQLVQSGAEVKKPGESLKISCQVSRDTSTTYWIGWVRQMPGKGLEWMGIIFPGDSDTRYSPSFQGQVTISADKSIMTAYLQLTSLKASDTAMYYCATQALRGAFDIWGQGTMVTVSS
VL: DIRLTQSPSSLSASVGDRVTITCQASQDISNYLNWYQQKPGKAPKLLIYDASYLETGVPSRFSGSGSGTDFTFTISSLQPEDFATYYCQQYDDLLFTFGPGTKLEIK
B5: ADI-41237 (antibody, V domains shown)
VH: EVQLVESGGGLVKPGGSLRLSCAASGFTFSDYYMNWIRQAPGKGLEWVSDISPSSSYTNYADSVKGRFTISRDNAKNSLYLQMNSLRAEDTAMYYCARRGSCTGGVCSFDYWGQGTLVTVSS
VL: QPGLTQPPSVSGAPGQRVTISCTGSSSNIGAGYDVNWYQQLPGTAPKLLIYDNSNRPSGVPDRFSGSKSGTSASLAITGLQAEDEADFYCQSYDSSLSGFVFGTGTKVTVL
B6: ADI-41245 (antibody, V domains shown)
VH: QVQLVESGGGLVKPGGSLRLSCAASGFSFSAYYMSWIRQAPGKGLEWISNISGGSSYANYADSVEGRFTISRDNAKNSLYLQMNSLRAEDTAVYYCAREFQTYYYMDVWGKGTTVTVSS
VL: QPVLTQPPSVSGAPGQRVTISCTGSSSNIGAGYEVHWYQQLPGTAPKLLIYGNNNRPSGVPDRFSGSKSGTSASLAITGLQAEDEADYYCQSYDSSLSGSVFGGGTKLTVL
B7: ADI-41248 (antibody, V domains shown)
VH: QVQLVQSGGGVVQPGRSLRLSCAASGFTFSSYSMHWVRQAPGKGLEWMAVCWYDGSNIYYADSVKGRFTISRDNSKNTVYLQMNSLRAEDTAVYYCARDDRYCSGGTCLSAFDIWGQGTMVTVSS
VL: ETTLTQSPSSLSASVGDRVTITCRASQSISSYLNWYQQKPGRAPKLLIYTTSSLQSGVSSRFSGSGSGTDFTLTINSLQPEDFATYYCQQSYSTPNTFGQGTKVEIK
B8: ADI-41597 (antibody, V domains shown)
VH: QVQLQESGPGLVKPSETLSLTCTVSGASVSSNNYYWSWIRQPPGKGLEWIGYIYYSGSTNYNASLKSRVTISVDTSKNQFSLKLSSVTAADTALYYCAGEHIFGVASPFEAPFDYWGQGTMVTVSS
VL: SSELSQPPSVSVAPGKTARITCGGNNIGIKSVHWYQQKPGQAPVLVIYSDSDRPSGIPERFSGSNSGNTATLTITRVEAGDEADYYCQVWDSSSDHFVFGIGTKVTVL
B9: ADI-41595 (antibody, V domains shown)
VH: QVQLVQSGGGVVQPGGSLRLSCAASGFTFSDYGMHWVRQAPGKGLEWVAVISDGGSNQYSADSVRGRFTISRDNSKNTLYLQMNSLRPEDTAVYYCAKARIAARAIFDYWGQGTLVTVSS
VL: DIQLTQSPSSLSASVGERITITCQASRDVRIYLNWYQHKPGKAPKLLIYDASNLETGVPSRYSGSGSGTDFTFTISSLQPEDIATYFCQQYDLLPPTFGVGTKVEIK
B10: ADI-41246 (antibody, V domains shown)
VH: EVQLLESGPGLVKPSETLSLTCIVSGGSISSYNWNWIRQPPGKGLEWIGYIYNSGSTNYNPSLKSRVTISVDTSKNQFSLKLSSVTAADTAVYYCARYFDYGSGGFDYWGQGTLVTVSS
VL: ETTLTQSPGTLSLSPGERATLSCRASQSVTSTYLAWYQQKPGQAPRLLIYGASSRATGIPDRFSGSGSGTDFTLTISRLEPEDFAVYYCQQFDSSLTFGGGTKVEIK
B11: ADI-41598 (antibody, V domains shown)
VH: EVQLVESGPGLVKPSETLSLTCTVSGGSITPYYWSWIRQPPGKGLEWIGNISYSGSTTYNPSLKSRVTISVDRSKDQFSLRLRSVTAADTAVYYCARVVTLVLGVSLNDAFDIWGQGTMVTVSS
VL: DIQMTQSPSSLSASVGDRVTITCRASQSISRYLNWYQHKPGKAPILLIYAATTLESGVPPRFSGSGSGTDFSLTISSLQPEDFATYYCQQSYSVPLTFGGGTKLEIK
B12: ADI-41244 (antibody, V domains shown)
VH: QVTLKESGGGLIQPGGSLRLSCAVSGFTVSSKYMSWVRQAPGKGLEWVSVIYGGGSTYYTDSVKGRFTISRDNSNNTLYLQMNSLRAEDTAIYYCAREARSYNYDYVGNDAFDIWGQGTTVTVSS
VL: DIVLTQTPDSLAVSLGERATINCKSSQSVLNNFNNKNYLAWYQQKPGQPPKLLIYWASTRESGVPDRFSGSGSGTDFTLTITSLQAEDVAIYYCQQYYRTPPYTFGQGTKVDIK
B13: ADI-41235 (antibody, V domains shown)
VH: QVQLQQWGAGLLKPSETLSLTCGVYGESFSGHYWSWIRQPPGKGLEWMGEIHHSGTTNYNPSLKSRVTISVDTSKNQFSLKLNSVTAADTAVYYCARNPAEDILTGYSPPFHYYYMDVWGKGTTVTVSS
VL: QSVLTQPPSVSGAPGQRVTISCTGSSSNIGAGYDVHWYQQIPGTAPKLLIHSNNNRPSGVPDRFSGSKSGTSASLAITGLQAEDEADYYCQSYDSSLSVVFGGGTKLTVL
B14: ADI-41238 (antibody, V domains shown)
VH: EVQLLESGGGLVKPGGSLRLSCAASGFTFRDYYMSWIRQAPGKGLEWVSYISSSSSYTEYADSVKGRFTISRDNAKKSLYLQMNSLRTEDTAVYYCARVITQAGTGTTYYMDVWGKGTTVTVSS
VL: QSVLTQPPSVSGAPGQRVTISCTGSSSNIGTGYDVHWYQQLPGTAPKLLIYANNNRPSGVPDRFSGSKSGTSASLAITGLQAEDEADYYCQSYDSSLSLVFGGGTKLTVL
B15: ADI-41594 (antibody, V domains shown)
VH: EVQLVESGGGLVKPGGSLRLSCAASGFSFSSYYMNWVRQAPGKGLEWVSSISPSSSYTNYADSVKGRFTISRDNAKDSLYLQMNSLRAEDTAVYYCARDGLLGITIFGVVQDYWGQGTLVTVSS
VL: QSVVTQPPSVSGAPGQRVTISCTGSSSNIGAGYDVHWYQQLPGTAPKLLIYGNTNRPSGVPDRFSASKSGTSASLAITGLQAEDEADYYCQSYDSSLSVVFGGGTKLTVL
B16: ADI-41589 (antibody, V domains shown)
VH: EVQLLESGGGLVQPGGSLRLSCAASGFTFNFFALTWVRQAPGKGLEWVSAISGSGESTYYADSVKGRFTISRDNSKNTLYLQMNSLRAEDTAVYYCAKFARSGDYASFFDYWGQGTLVTVSS
VL: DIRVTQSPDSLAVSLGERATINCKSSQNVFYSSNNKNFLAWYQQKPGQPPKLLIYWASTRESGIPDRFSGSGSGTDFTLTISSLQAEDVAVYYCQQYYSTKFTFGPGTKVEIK
B17: ADI-41243 (antibody, V domains shown)
VH: QVQLVQSRAEVKKPGESLKISCKGSLHSFSNNWIGWVRQMPGKGLEWMGIIFPDDSDTRYSPSFQGQVTISADKSISTAYLQWSSLKASDTAIYYCGTVVTLIQGVADWGQGTLVTVSS
VL: QPVLTQPHSVSESPGKTVTISCTRSSGSIDSSYVQWYQQRPGSSPTTVIYEDNLRPSGVPDRFSGSIDSSSNSASLTISGLKTEDEAEYYCQSYDSSNPVVFGGGTKLTVL
B18: ADI-41241 (antibody, V domains shown)
VH: QVQLVQSGAEVKKPGASVQVSCKASGYTFTGDYMHWVRQAPGQGLEWMGRINPNSGGTNYAQKFQGRVTMTRDTSISTAYMELSRLRSDDTAVYYCARAAAEYSSSSPTSYYYMDVWGKGTTVTVSS
VL: EIQMTQSPSSLSASVGDRVTITCRASQNIYSFLNWYQQKPGKAPKLLIYAASSLQSGVPSRFSGSGSATDFTLTISSLQPEDFATYYCQQSYSPPQITFGQGTKVDIK
B19: ADI-41236 (antibody, V domains shown)
VH: QVQLVQSGGGLVKPGGSLRLSCTASGFTFSDYYMDWIRQAPGKGLEWVSSISSSSTYTKYADSVKGRFTISRDNAKNSLFLQMNSLRAEDTAVYYCVRNLGPYCSSTSCFVFDYWGQGTLVTVSS
VL: QSVLTQPPSVSGAPGQRVSISCTGSSSNIGAGYEVHWYKQVPGTAPRLLMYDNTNRPSGVPDRVSGSKSGTSASLAITGLQAEDEADYYCQSYDNSLNKSVFGGGTKVTVL
B20: ADI-41242 (antibody, V domains shown)
VH: EVQLVESGGGVVQPGRSLRLSCAASGFPFSSYAMHWVRQAPGKGLEWVAVIWFEGNEKYFADSVEGRFTISRDNSKNTLYLQMNSLRAEDTARYYCARFYFGAFDIWGQGTLVTVSS
VL: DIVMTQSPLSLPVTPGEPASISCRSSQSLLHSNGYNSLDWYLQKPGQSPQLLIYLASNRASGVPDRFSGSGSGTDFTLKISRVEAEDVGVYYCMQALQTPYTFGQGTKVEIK
B21: ADI-41599 (antibody, V domains shown)
VH: EVQLLESGGGLVQPGGSLRLSCAASGFIFSNYEMNWVRQAPGKGLEWISHITPTGNSIYYADSVKGRFTISRDNAKNAQYLQMHSLRPDDTAIYYCARGEDPIAATGGFDSWGQGTLVTVSS
VL: EIVLTQSPSSLSASVGDRVTIPRRSSQNVDKFLHWYQQRPGKAPKLLIYAAFSLQSGVPSRFSGSGSGTDFTLTISSLQPEDFATYYCQQSYSTPFTFGQGTKVEIK

Assays:
RSV F on RSV-A2 virus [1] = target: RSV F on RSV-A2 virus (Respiratory syncytial virus (RSV-A2)); experiment: cell-based or functional assay
RSV F on RSV-A2 virus [2] = target: RSV F on RSV-A2 virus (Respiratory syncytial virus, RSV-A2, UniProt P03420 26-574); experiment: cell-based or functional assay

| Binder | Neutralization IC50 (RSV subtype A) (RSV F on RSV-A2 virus [1]) | Neutralization IC50 (RSV subtype A) (RSV F on RSV-A2 virus [2]) |
| --- | --- | --- |
| B1 | > 25 µg/mL | – |
| B2 | > 25 µg/mL | – |
| B3 | > 25 µg/mL | – |
| B4 | 0.01 µg/mL | – |
| B5 | 0.04 µg/mL | – |
| B6 | 0.71 µg/mL | – |
| B7 | > 25 µg/mL | – |
| B8 | – | 0.173 µg/mL |
| B9 | – | 0.0475 µg/mL |
| B10 | > 25 µg/mL | – |
| B11 | – | 0.174 µg/mL |
| B12 | > 25 µg/mL | – |
| B13 | > 25 µg/mL | – |
| B14 | 0.13 µg/mL | – |
| B15 | – | 0.0406 µg/mL |
| B16 | – | > 25 µg/mL |
| B17 | > 25 µg/mL | – |
| B18 | 18.8 µg/mL | – |
| B19 | > 25 µg/mL | – |
| B20 | > 25 µg/mL | – |
| B21 | – | 0.637 µg/mL |

Source: patent US20260258115A1 (MAPP BIOPHARMACEUTICAL, published 2026)
